This data set deals with the molecule itself. The data set is described as follows: SEC.

B1: F-BAR_(REMIND): the [70–347] region of TgREMIND with an N-terminal His-tag and five cysteines replaced (domain or fragment, Toxoplasma gondii, UniProt S8GLL7 70-347, looked up)
chain: APANATAENAFSFKEDLTSDWSLAVSRVDSGRTLLERLRAALLLRANAAVEQASKMESLVQTFVATNLESKTVMSAVNALRLEAVHQADHAREFAEAIRRDVVEGTLTNTIHNHYLVLQQIKADGSEAQKELTLATVDHQKAMHRYLRASKEAAAAAVKAQAAEGEAPNVRTELALSAIRRAVEAKAAEDEHRESVARLNAAAQANERKMAIILQSLQDMDEKRMLSFRDALRKAMVYQAAYLRNVQYDLEQTIKTVDAVDPMADLQEFLGKYRLPKK
Regarding B1, the “stoichiometry N” value was 6.

In general, stoichiometry N refers to a count of units in the complex or per binding partner.
